According to patent US6066472:

Biological target: myelin basic protein, 32P-labeled on tyrosine residues

PTPL1 protein tyrosine phosphatase (from UniProt Q12923) (enzyme)
dephosphorylation (radioactivity released as inorganic phosphate, percentage of total input): > 30%
